We go through one molecule from patent US20210228629A1.

One assay concerns the target BCMA protein (UniProt Q02223). Briefly: cell-based or functional assay.
The target of assay [1] is BCMA expressed on K562 Very High-BCMA cells (UniProt Q02223). Put plainly: cell-based or functional assay.

B1: anti-BCMA CAR (co-stimulatory domain not specified for the experiment) (protein, part only; not given: CAR hinge, transmembrane, signaling domains, part only)
chain, part: DIVLTQSPPSLAMSLGKRATISCRASESVTILGSHLIHWYQQKPGQPPTLLIQLASNVQTGVPARFSGSGSRTDFTLTIDPVEEDDVAVYYCLQSRTIPRTFGGGTKLEIKGSTSGSGKPGSGEGSTKGQIQLVQSGPELKKPGETVKISCKASGYTFTDYSINWVKRAPGKGLKWMGWINTETREPAYAYDFRGRFAFSLETSASTAYLQINNLKYEDTATYFCALDYSYAMDYWGQGTSVTVSS
Regarding B1, the CD107a+ cells (%), degranulation after 18 hours was 22.2% with BCMA protein and 3.82% in assay [1].
